System: MS2 coat protein
Test: apparent KD of MS2 coat protein; designed switch direction (-1 OFF switch, 1 ON switch): -1; higher = weaker reporter binding
Summary of the method: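 For each design, the apparent KD is the median over clusters of curves fitted to normalised cluster fluorescence. Clusters held RNA switches with common flanks, transcribed on Illumina chips by stalled E. coli RNA polymerase. These were titrated with SNAP-549-labelled MS2 coat protein, doubling from 0.7 or 1.5 nM to 3 µM, without input, with 200 uM small-molecule ligand, or with an oligonucleotide input.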

[1] = input ligand: microRNA oligo, concentration not stated
[2] = Eterna round: R95, input ligand: FMN 200 uM
[3] = Eterna round: R95, input ligand: microRNA oligo, concentration not stated
[4] = Eterna round: R95, input ligand: none

Sequence | apparent KD of MS2 coat protein (input ligand: FMN 200 uM) [nM] | apparent KD of MS2 coat protein [1] [nM] | apparent KD of MS2 coat protein (input ligand: none) [nM] | apparent KD of MS2 coat protein [2] [nM] | apparent KD of MS2 coat protein [3] [nM] | apparent KD of MS2 coat protein [4] [nM]
UACAUGAGGAUCACCCAUGUUUUGUCGUGUAUGGUAUUUAUCUAGGAUAUCAAUUUAUUUAAUUAUGAGAAGGAGAAUAUUAAU [JMF's solution 21] (Eterna round: R96, puzzle: Exclusion NG 3) | 36.3 | 27.7 | 34.7 | – | – | –
GAUUGAGAAGGAUAUACAUGAGGAUCACCCAUGUGCUUCAGCUAGGAGACUAGCAUUGGUAGAAGGUCUUAAUC [Mod of lroppy 15 - Jieux - Exclusion 3] (Eterna round: R97, puzzle: Exclusion 3) | 69.7 | – | 19.2 | – | – | –
AGUAGAUCUACGCUUGCGUGGAUCUGCUAUGCAGGUGUUACAUGAGGAUCACCCAUGUCCUCGUUUGCUCGUCUUAU [JL turnoff v2 99.13] (puzzle: Sensor v3, turn-off variant 2) | – | – | – | 333 | 693 | 448
CAGUACUGAGGAUAUACAUGAGGAUCACCCAUGUGAGUGAUACUAGUGAGGUCGAUUAGUAGAAGGCAGUACUG [Mat X3R4 m27] (Eterna round: R97, puzzle: Exclusion 3) | 1110 | – | 123 | – | – | –
AAGAGUGCAGGAUAUACUUGUUAGGACGGUUGGAUGAAUGGACAUGAGGAUCACCCAUGUAGAAGGGCAGAGAG [JR_Exclu2_Sub051] (puzzle: Exclusion 2) | – | – | – | 33.9 | 30.2 | 41.3
UCUGGAGCAGGAUAUAUAUGACGUGCUUCGGCACGGUGAGUACAUGAGGAUCACCCAUGUAGAAGGGCUCCAGA [Exclusion 2 (Mod of Brourd's E2/9-D2)] (Eterna round: R97, puzzle: Exclusion 2) | 81.8 | – | 20.3 | – | – | –
GCAGCUAAUCGAGGAUAUCAGCACGUGUAGUGCUGAGAAGGCGACAUGAGGAUCACCCAUGUGAUCAAUUAAUAUUAAUGCUGC [ENG1/11-A3] (Eterna round: R96, puzzle: Exclusion NG 1) | 893 | 308 | 414 | – | – | –
UGUUGUUACGCAGGAUAUGAGGAUCACCCAUAUUAGGAUAUCGAAAGAGAAUUUCUGAGGAUCACCCAGAAGGGCGGGUUAACA [pwkr exNG2 2xF5 2xFMN.36] (Eterna round: R96, puzzle: Exclusion NG 2) | 118 | 38.5 | 47.3 | – | – | –
UUUGAAUAGGUAGGAUAUACAUACAUUCCUACAUUACUAACAUGAGGAUCACCCAUGUAUACAUUGUAGAAGGACCAGAUUGAU [JR_ExcNG2_Sub039] (Eterna round: R96, puzzle: Exclusion NG 2) | – | 18.8 | – | – | – | –
CCAAUGUAAGGAUAUGACAAUGGUAUCUUCGGAUACCAUUGUCAGAAGGUACAUGAGGAUCACCCAUGUACAAA [Ex4-3: 9] (puzzle: Exclusion 4) | – | – | – | – | 13.4 | –
CUUUUGUGAGGAUAUUAGUAGUAAAUAAAUAAAAUUAUUACUGAGAAGGUACAUGAGGAUCACCCAUGUUCCUU [Salish 062 v21] (Eterna round: R97, puzzle: Exclusion 4) | 12.8 | – | 19.9 | – | – | –
CAUAGCCGUGUAAGGAUAUCCGAUCCACGGGACAAGGAGAAGGUACAUGAGGAUCACCCAUGUAAGGGUUCCUA [Vecequve] (Eterna round: R97, puzzle: Brourd's mod of Exclusion 4) | 22.9 | – | 21.7 | – | – | –
CGGACCCGAGGAUAUCGUAAACCCGACAUGAGGAUCACCCAUGUCAUCCUCACGGCGCCACGAGAAGGCGGUGUUA [Ansolaedra] (puzzle: Exclusion 5) | – | – | – | – | 21.8 | –
UAAAUGUGAGGAUAUCAGGUGUGCUAGAAUACUGGUACAUCUGAGAAGGCACAUGAGGAUCACCCAUGUUCCUU [Mat - Exclusion 4 - Mod of JL - D53] (puzzle: Exclusion 4) | – | – | – | – | 15.8 | –
GAAAACGCAGAGGAUAUUCCAGAUCUAAGCUGCGAAGAAGGCUGCACAUGAGGAUCACCCAUGUGGUCUUUAAA [Maoned] (puzzle: Exclusion 6) | – | – | – | 121 | 12.3 | 14.9
UUUAUAAUAAGAUCAAUUAAUUAACAUGAGGAUCACCCAUGUGAGGAUAUCAGCUCGAUUAGAGCUGAGAAGGCACAAUAUAAG [ExNG3/17-B1] (Eterna round: R96, puzzle: Exclusion NG 3) | 79.3 | 36.3 | 43.3 | – | – | –
UUUUUUUGAGUAAGGAUAUGAUGCAGGAAACUGCGUCAGAAGGUACAUGAGGAUCACCCAUGUUAAUUUUGUUU [Explosion 14 - Jieux - Brourd's mod of Exclusion 4] (Eterna round: R97, puzzle: Brourd's mod of Exclusion 4) | 18.4 | – | 20.3 | – | – | –

Sequence | apparent KD of MS2 coat protein (input ligand: FMN 200 uM) [nM] | apparent KD of MS2 coat protein [1] [nM] | apparent KD of MS2 coat protein (input ligand: none) [nM] | apparent KD of MS2 coat protein [2] [nM] | apparent KD of MS2 coat protein [3] [nM] | apparent KD of MS2 coat protein [4] [nM]
ACAAGCUUUUGCUCGUCUUACAUGAGGAUCACCCAUGUCGGAUGAUCGCUUGCGUCCGGCGUCUGAGCCGUGACGGU [Sensor, turn off variant MOD of sellena. cleaned up dot.] (Eterna round: R97, puzzle: Sensor, turn-off variant 1) | 15.3 | – | 15 | – | – | –
GAUUAUGCGAGCUUUAGGGACAUGAGGAUCACCCAUGUUCGUCUUAUUAAUCUGGGUACACUAACAUACCUAAAUCU [JMF 9] (puzzle: Sensor v3, turn-off variant 1) | – | – | – | 27.7 | 47.2 | 31.4
CAAAAGGAAGGAUAUACAUGUUAAUUAUCCGAAGAUGUCGUACAUGAGGAUCACCCAUGUAGAAGGUCCAAAAC [Tiesbiused] (puzzle: Exclusion 2) | – | – | – | – | 27.1 | –
GCUAGUCAUGUCAGGAUAUGCAGAACCUUGGUUCUGCAGAAGGGACAUGAGGAUCACCCAUGUGCCUAACUAGC [Mat - Exclusion 4 - JL Mod - D15] (Eterna round: R97, puzzle: Brourd's mod of Exclusion 4) | 294 | – | 40.3 | – | – | –
UUUAUUAAUUAAUAUAAUAAGAUCACAUGAGGAUCACCCAUGUAGGAUAUCAGCUCGUUUAGAGCUGAGAAGGACAUAAUUAUA [ExNG3/1-B2] (Eterna round: R96, puzzle: Exclusion NG 3) | 135 | 33.6 | 35.9 | – | – | –
UUAAUUAAUUGACUGCAAGAUCAACAUGAGGAUCACCCAUGUGAGGAUAUCAGCUCGUGUAGAGCUGAGAAGGCACAAGCAGUC [ExNG3/16-A3] (Eterna round: R96, puzzle: Exclusion NG 3) | 73.6 | 13.4 | 21.8 | – | – | –
AUUAUGUUAGGAUAUUAUUUGCCCUACUAAGGCACGAGAAGUAAGAAGGGACAUGAGGAUCACCCAUGUUGGAG [Eternabot (L2) Solution 71] (Eterna round: R97, puzzle: Exclusion 4) | 30.3 | – | 42.7 | – | – | –
AUUUUAAUAUAGGAUAUCGAAAUAAUUAUUUAACGAGAAGGAUGAACAUGAGGAUCACCCAUGUGGUAUCAUGG [Mat - Exclusion 6 - JL Mod - D32] (puzzle: Exclusion 6) | – | – | – | 178 | 159 | 163
GAAAAGUGAGGAUAUGGUAAAAGAAAAAGAAAAAGAAAACUCCAGAAGGCACAUGAGGAUCACCCAUGUGAAAG [salish99_ex4_r3_006] (puzzle: Exclusion 4) | – | – | – | 15.7 | 16.2 | 15.8
AGCUGUGAGUGAGGAUAUCUGCUGUUGUCAGUCGGAGAAGGCGCGGACAGAACAUGAGGAUCACCCAUGUGUAUGGGCGGCCUC [Usatia] (Eterna round: R96, puzzle: Exclusion NG 1) | 217 | 43.6 | 85.5 | – | – | –
UGUGCGUAUGUGAGGAUAUGCUGGUCCUUGGAUCGGCAGAAGGCACAUGAGGAUCACCCAUGUGGUGUCGUUCU [salish99_Bmod_ex4_096] (puzzle: Brourd's mod of Exclusion 4) | – | – | – | – | 188 | –
UGAAAGGUAGGAUAUACGAAGAAAAAGGGUAGAAUAAUAACACAUGAGGAUCACCCAUGUAGAAGGACCAAAGU [Mat - Exclusion 2 - Mod of my Tesla design - D10] (puzzle: Exclusion 2) | – | – | – | 51.7 | 26.2 | 24.6
CAGUACUGAGGAUAUACAUGAGGAUCACCCAUGUGUUCCAGCUAGGAAACUAGCAAGAGUAGAAGGCAGUACUG [salish99_ex3_r3_066] (Eterna round: R96, puzzle: Exclusion 3) | 543 | 18.5 | 22.9 | – | – | –
UCUAGCUUUUUGCGUCAAGCAUUGAAGUCUGUUAUCGUUACAUGAGGAUCACCCAUGUUUGUUUUAUGUCGUCUUGA [JR_SV3TOV2_Sub100] (puzzle: Sensor v3, turn-off variant 2) | – | – | – | 19.3 | 15.6 | 22.2
UAUUGUAGACAGGAUAUCUAUCGGGUAACCCGAAGAGAAGGGUCUACAUGAGGAUCACCCAUGUGGCCCGUUUU [EX6 B.29] (Eterna round: R97, puzzle: Exclusion 6) | 42 | – | 21.5 | – | – | –
UAAGAAUGCAAGGAUAUGGCUAGGUAAAACAUGUCAGAAGGUGCUACAUGAGGAUCACCCAUGUGUCUCGUGCG [Eternabot (L1) Solution 2] (Eterna round: R97, puzzle: Exclusion 6) | 75.8 | – | 64.3 | – | – | –
